In patent US20110020432A1, “COMPOSITIONS AND METHODS OF USE FOR POST-RADIATION PROTECTION” (TERAPIO CORPORATION, priority 2009, published 2011):

Key:
[1] = reported in the scientific literature; cited from earlier work
mice = conditions: whole animal studies; reported DRF; cited from earlier work
C57BL6/albino mice = test: Survival after whole body X-irradiation, oral RLIP76 proteoliposomes (dose and time response); assay type: in vivo
Procedure: In order to investigate whether RLIP76 could be effective when delivered more than 24 hours after radiation exposure, a series of studies were conducted to explore the protective benefit of RLIP76 when given at varying doses, exposure levels, and times after exposure. All mice were C57BL6/albino strain, the strain most commonly used for radiation effect models. Exposure was delivered by whole body X-irradiation with a Varian Clinac Linear accelerator (2100C) at the Texas Cancer Center (Arlington, Tex.). A 6-MeV photon beam was used at a rate of 400 cGy/minute. Mice were isolated to one side of their cage on top of 1.5 cm of superflab bolus and the field of treatment centered on them. Total dose was split into two fractions, anterior and posterior, by rotating the accelerator gantry 180 degrees. Unless otherwise specified, all experiments were performed on six mice per group.
Dose and time dependency was investigated over a range of radiation exposures. Initially, six groups of wild-type mice were exposed to 500 cGy of radiation, and then treated with no RLIP76 proteoliposomes (control) or various dosages of RLIP76 proteoliposomes given at various times after the radiation exposure. […]

[2] = test system: wild-type (+/+) and homozygous (−/−) RIP1 mice; test: Survival of wild-type and RIP1 knockout mice after X-irradiation, RLIP76 liposomes i.p.; assay type: in vivo
Procedure: FIG. 5. Effect of RLIP76 on survival after higher doses of X irradiation. Four wild-type (+/+) RIP1 mice and four homozygous (−/−) mice were each exposed to 750 cGy X irradiation and treated with control liposomes administered by i.p. injection (triangles, homozygous RIP1 mice; diamonds, wild-type RIP mice), or 400 μg RLIP76 liposomes administered by i.p. injection (squares, homozygous RIP1 mice; circles, wild-type RIP1 mice), given 12 hours after exposure.
As disclosed in U.S. Ser. No. 11/741,447, C57B mice that carry both copies of the RIP1 (mouse version of RLIP76) gene (wild-type; +/+), one copy of the RIP1 gene (heterozygous; +/−), or no copies of the RIP1 gene (homozygous; −/−) were created using Cre-Lox technology that can selectively suppress genes (Lexicon Genetics, Incorporated, The Woodlands, Tex.). Western blot analysis of tissues from homozygous RIP 1 knockout mice was performed after i.p. injection of RLIP76-liposomes. […]
If loss of RIP1 was the major determining factor in this acquired radiation sensitivity, replacement of this deficit should reverse radiation […]. […] Liposomes were prepared in sufficient quantities and administered via intraperitoneal (i.p.) injection to homozygous RIP1 mice. […]

Question: Which “radioprotective effect on its own” value [1] does the source give for `Cc1cc(C(C)(C)C)c(O)c(C(C)(C)C)c1` [BHT, butylated hydroxytoluene] here?
Answer: radioprotective effect

Question: With `CC1=NN(c2ccccc2)C(=O)C1` [edaravone, 3 methyl-1-phenyl-2-pyrazolin-5-one] as the molecule, how does the “dose-reduction factor (DRF)” value (mice) read?
Answer: 1.3

Question: With `CC1(C)CC(O)CC(C)(C)N1[O]` [tempol, 4-hydroxy-2,2,6,6-tetramethylpiperidinyloxy] as the molecule, how does the “dose-reduction factor (DRF)” value (mice) read?
Answer: 1.3

B1: RLIP76 protein: ubiquitous multi-specific efflux pump protein; human sequence of 655 amino acids, GenBank NP—006779; recombinant (protein, UniProt Q15311 2-655, looked up)
RalA-binding protein 1: TECFLPPTSSPSEHRRVEHGSGLTRTPSSEEISPTKFPGLYRTGEPSPPHDILHEPPDVVSDDEKDHGKKKGKFKKKEKRTEGYAAFQEDSSGDEAESPSKMKRSKGIHVFKKPSFSKKKEKDFKIKEKPKEEKHKEEKHKEEKHKEKKSKDLTAADVVKQWKEKKKKKKPIQEPEVPQIDVPNLKPIFGIPLADAVERTMMYDGIRLPAVFRECIDYVEKYGMKCEGIYRVSGIKSKVDELKAAYDREESTNLEDYEPNTVASLLKQYLRDLPENLLTKELMPRFEEACGRTTETEKVQEFQRLLKELPECNYLLISWLIVHMDHVIAKELETKMNIQNISIVLSPTVQISNRVLYVFFTHVQELFGNVVLKQVMKPLRWSNMATMPTLPETQAGIKEEIRRQEFLLNCLHRDLQGGIKDLSKEERLWEVQRILTALKRKLREAKRQECETKIAQEIASLSKEDVSKEEMNENEEVINILLAQENEILTEQEELLAMEQFLRRQIASEKEEIERLRAEIAEIQSRQQHGRSETEEYSSESESESEDEEELQIILEDLQRQNEELEIKNNHLNQAIHEEREAIIELRVQLRLLQMQRAKAEQQAQEDEEPEWRGGAVQPPRDGVLEPKAAKEQPKAGKEPAKPSPSRDRKETSI
Question: Which “rescue with delayed first dose” value (C57BL6/albino mice; initial dose given a full 24 hours or more after the radiation exposure) does the source give for B1 here?
Answer: significant rescue

Question: And the increase in survival (C57BL6/albino mice; wild-type mice, radiation dose that normally results in complete lethality by day 30 (500 cGy), 2 doses of 100 micrograms, oral)?
Answer: 200%

Question: And the “survival as compared with RIP1+/+ mice” value ([2]; RIP1−/− mice supplemented with RLIP76, 750 cGy)?
Answer: significantly improved survival

Question: And the “reversal of radiation sensitivity” value ([2]; mice genetically deficient in RLIP76 protein, supplementation by intravenous or oral administration)?
Answer: can be reversed
